The target of assay [1] is des-31,32-proinsulin (UniProt P01308). As to the kind of experiment: competitive RIA, PEP001-coated tubes, 125I-Tyr-C-peptide; serum E1 overloaded with 3.33 pmol/ml des-31,32-proinsulin; competitor AC1D4 20 µg/ml.
Assay [2] concerns the target des-64,65-proinsulin (UniProt P01308). As to the kind of experiment: competitive RIA, PEP001-coated tubes, 125I-Tyr-C-peptide; serum E2 overloaded with 3.33 pmol/ml des-64,65-proinsulin; competitor AC1D4 20 µg/ml.
Assay [3] has the same target. The assay is described as follows: competitive RIA, PEP001-coated tubes, 125I-Tyr-C-peptide; serum E1 overloaded with 0.67 pmol/ml des-64,65-proinsulin; competitor AC1D4 20 µg/ml.
Assay [4] has the same target. As to the kind of experiment: competitive RIA, PEP001-coated tubes, 125I-Tyr-C-peptide; serum E1 overloaded with 3.33 pmol/ml des-64,65-proinsulin; competitor AC1D4 20 µg/ml.
Assay [5] has as its target des-31,32-proinsulin (UniProt P01308). The assay is described as follows: competitive RIA, PEP001-coated tubes, 125I-Tyr-C-peptide; serum E1 overloaded with 0.16 pmol/ml des-31,32-proinsulin; no AC1D4.
For another assay, the target named is human proinsulin (human) (UniProt P01308). As to the kind of experiment: competitive RIA, PEP001-coated tubes, 125I-Tyr-C-peptide; serum E2 overloaded with 0.67 pmol/ml proinsulin; no AC1D4.

In the case of “PEP001 anti-C-peptide monoclonal antibody”, the Increase after overload (%) is 21% in the assay with des-31,32-proinsulin [1]; 69% in the assay with des-64,65-proinsulin [2]; 63% in the assay with des-64,65-proinsulin [3]; 242% with des-64,65-proinsulin [4]; 8% with des-31,32-proinsulin [5]; 12% in the assay with human proinsulin (human).

The values are drawn from patent publication US20050037448A1.
